Results from IntAct's records for PubMed 18033301.

B1: Clathrin interactor 1 (Homo sapiens), Q14677 (parent)
chain: MLNMWKVRELVDKATNVVMNYSEIESKVREATNDDPWGPSGQLMGEIAKATFMYEQFPELMNMLWSRMLKDNKKNWRRVYKSLLLLAYLIRNGSERVVTSAREHIYDLRSLENYHFVDEHGKDQGINIRQKVKELVEFAQDDDRLREERKKAKKNKDKYVGVSSDSVGGFRYSERYDPEPKSKWDEEWDKNKSAFPFSDKLGELSDKIGSTIDDTISKFRRKDREDSPERCSDSDEEKKARRGRSPKGEFKDEEETVTTKHIHITQATETTTTRHKRTANPSKTIDLGAAAHYTGDKASPDQNASTHTPQSSVKTSVPSSKSSGDLVDLFDGTSQSTGGSADLFGGFADFGSAAASGSFPSQVTATSGNGDFGDWSAFNQAPSGPVASSGEFFGSASQPAVELVSGSQSALGPPPAASNSSDLFDLMGSSQATMTSSQSMNFSMMSTNTVGLGLPMSRSQNTDMVQKSVSKTLPSTWSDPSVNISLDNLLPGMQPSKPQQPSLNTMIQQQNMQQPMNVMTQSFGAVNLSSPSNMLPVRPQTNALIGGPMPMSMPNVMTGTMGMAPLGNTPMMNQSMMGMNMNIGMSAAGMGLTGTMGMGMPNIAMTSGTVQPKQDAFANFANFSK
partner: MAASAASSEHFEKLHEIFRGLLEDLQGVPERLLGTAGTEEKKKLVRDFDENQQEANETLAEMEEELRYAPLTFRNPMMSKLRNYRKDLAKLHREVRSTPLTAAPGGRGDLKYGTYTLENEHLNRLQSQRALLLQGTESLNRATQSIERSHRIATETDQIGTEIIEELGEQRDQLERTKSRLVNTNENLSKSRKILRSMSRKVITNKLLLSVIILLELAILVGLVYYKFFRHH
B2: Vesicle transport through interaction with t-SNAREs homolog 1B (Mus musculus), O88384 (parent)
chain: B1 partner
partner: B1 chain

Variants of: B1
Conditions: with vti1b_mouse Vti1b

Effect of a mutation on the interaction, disrupting interaction strength:
R96S
M53D;Y54D
R146E
F52D

Variants of: B2
Conditions: with epn4_human CLINT1, Q14677

Effect of a mutation on the interaction, disrupting interaction strength:
F73S
E12A
E65W
S8W
E23R
